Patent US20070248607A1, “NEGATIVE IMMUNOMODULATION OF IMMUNE RESPONSES BY NKG2D-POSITIVE CD4+ CELLS” (priority 2005, published 2007)

Experiments:
Type in all cases: cell-based
NKG2D+ CD4+ T cells = test: NKG2D expression and expansion of activated CD4 T cells; details: for expansion / proliferation of NKG2D+ CD4+ T cells: anti-CD3 activated CD4 T cell cultures
Protocol: For the analysis of NKG2D expression in activated CD4 T cells, freshly isolated pure CD4^+ T cells were plated at 0.3×10^6/2 ml AIM-V medium (Gibco)/well in 24 well plates for various periods of time with or without the presence of mitogenic stimuli and/or the presence of NKG2D ligands. Mitogenic stimuli included either cross-linked anti-CD3 (plates were first coated with AffiniPure F(ab′)2 fragment goat anti-mouse IgG1, Fcγ fragment specific (Jackson ImmunoResearch Laboratories, Inc.) at 10 μg/ml in PBS over night at 4° C. followed by a 4 hr room temperature incubation with anti-CD3 (OKT3, Orthoclone, Ortho Biotech Products, L.P.) at 50 ng/ml (if not indicated otherwise), PHA (5 μg/ml), or PMA/Ionomycin. Ligand additions consisted of either irradiated CLR-MICA and control transfectants at a T cell:transfectant ratio of 5:1, or recombinant soluble MICA at 25 ng/ml if not indicated otherwise. Cells were harvested at various time points after the initiation of culture and tested for NKG2D, CD4 and CD3 coexpression using directly conjugated mAbs for standard three color flow cytometry.
(§1) For analysis of CD4^+ T cell proliferation in conjunction with NKG2D expression, 1×10^7 freshly isolated pure CD4^+ T cells/ml PBS were labeled with an equal volume of 2 μM CFSE (Molecular Probes) for 8 min at room temperature. CFSE was quenched with an equal volume of fetal calf serum for one min followed by three washes with AIM-V medium. CFSE labeled cells were then plated, stimulated and phenotypically analysed as described above. Additional ligands tested in this experimental setting included any of either C1R-MICB, ULBP-1, -2, -3, 4, or -5 transfectants, recombinant soluble MICB, or 5% soluble MIC containing serum from a MIC+ tumor patient and MIC− control serum. To test ligand specificity, ligand containing cultures were treated with either 10 μg/ml 6D4 (anti-MICA/B), 10 μg/ml 3F1 (anti-ULBP-1), or appropriately diluted isotype control immunoglobulins. In some experiments, ligand was replaced by solid-phase anti-NKG2D (1D11) at the concentrations ranging from 5-50 ng/ml. In some experiments, ligand/solid-phase mAb were added on day 1, 2 or 3 after the initiation of culture.

NKG2D- CD4+ T cells = test: CD4 T cell proliferation (CFSE dilution, [3H]thymidine incorporation); details: anti-CD3 activated CD4 T cell cultures
Protocol: as §1
To assess inhibition of CD4^+ T cell proliferation by standard [^3H]thymidine incorporation experiments, freshly isolated pure CD4^+ T cells were plated at 1×10^5 cells/well in a 96 well flat bottom plate containing titrated cross-linked anti-CD3 (see above) or isotype control Ig with or without titrated recombinant soluble MIC. After 72 hrs at 37° C., plates were pulsed with 3 μCi of [^3H]thymidine (Perkin Elmer) for 12 hrs. Plates were harvested and samples analysed by liquid scintillation using Uni-Filter GF/C plates and a TopCount Counter (both from Packard). Counts from triplicates were averaged.

CD4 T cells = test: Cell cycle analysis by propidium iodide staining; details: anti-CD3 activated CD4 T cell cultures

B1: sMICA: soluble MICA, NKG2D ligand added to CD4 T cell cultures (protein)
chain: EPHSLRYNLTVLSWDGSVQSGFLTEVHLDGQPFLRCDRQKCRAKPQGQWAEDVLGNKTWDRETRDLTGNGKDLRMTLAHIKDQKEGLHSLQEIRVCEIHEDNSTRSSQHFYYDGELFLSQNLETKEWTMPQSSRAQTLAMNVRNFLKEDAMKTKTHYHAMHADCLQELRRYLKSGVVLRRTVPPMVNVTRSEASEGNITVTCRASGFYPWNITLSWRQDGVSLSHDTQQWGDVLPDGNGTYQTWVATRICQGEEQRFTCYMEHSGNHSTHPVPSGK
- expansion / proliferation of NKG2D+ CD4+ T cells (NKG2D+ CD4+ T cells): expansion of NKG2D^+ CD4^+ T cells
- expansion / proliferation of NKG2D+ CD4+ T cells (NKG2D+ CD4+ T cells; listed as soluble MICA): proliferate
- NKG2D induction on normal CD4+ T cells (NKG2D+ CD4+ T cells; upon anti-CD3 activation): enhanced
- proliferation of NKG2D- CD4+ T cells (NKG2D- CD4+ T cells): inhibition of NKG2D^− CD4^+ T cell proliferation
- cell cycle distribution (CD4 T cells): partial cell cycle arrests in G0/G1
